Data as given in paper PMC7853477.

Key:
[1] = biological target: SARS-CoV-2 S protein receptor-binding domain RBDv1 (319–541) with C-terminal c-myc and 6xHis tags (SARS-CoV-2) (UniProt P0DTC2); assay: non-reducing SDS-PAGE with gel densitometry
[2] = biological target: SARS-CoV-2 S protein receptor-binding domain RBDv2 (320–537) with C-terminal c-myc and 10xHis tags (SARS-CoV-2) (UniProt P0DTC2); assay: non-reducing SDS-PAGE with gel densitometry

Substance	stoichiometry N [1]	percent covalent dimer [2] [%]	stoichiometry N [2]
SARS-CoV-2 S protein receptor-binding domain RBDv1 (319–541) with C-terminal c-myc and 6xHis tags (from UniProt P0DTC2 319-541) (domain or fragment)	2		
SARS-CoV-2 S protein receptor-binding domain RBDv2 (320–537) with C-terminal c-myc and 10xHis tags (from UniProt P0DTC2 320-537) (domain or fragment)		6	2
